Assay results as given in patent US20180369326A1 (LA JOLLA INSTITUTE FOR ALLERGY AND IMMUNOLOGY, published 2018).

T1: WT ICOS (wild-type inducible T-cell costimulator, transfected into Jurkat JTAg T cells) (Homo sapiens (Human), UniProt Q9Y6W8 21-199)
T1 sequence: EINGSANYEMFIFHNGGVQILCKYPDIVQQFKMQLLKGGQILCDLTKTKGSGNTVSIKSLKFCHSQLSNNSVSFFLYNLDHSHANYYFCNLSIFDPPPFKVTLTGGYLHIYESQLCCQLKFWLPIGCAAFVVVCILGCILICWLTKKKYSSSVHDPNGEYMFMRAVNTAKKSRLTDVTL

B1: TANK-binding kinase 1 (TBK1), endogenous, human cell lines (Jurkat JTAg, HEK293T) (enzyme, UniProt Q9UHD2 1-729, looked up)
chain: MQSTSNHLWLLSDILGQGATANVFRGRHKKTGDLFAIKVFNNISFLRPVDVQMREFEVLKKLNHKNIVKLFAIEEETTTRHKVLIMEFCPCGSLYTVLEEPSNAYGLPESEFLIVLRDVVGGMNHLRENGIVHRDIKPGNIMRVIGEDGQSVYKLTDFGAARELEDDEQFVSLYGTEEYLHPDMYERAVLRKDHQKKYGATVDLWSIGVTFYHAATGSLPFRPFEGPRRNKEVMYKIITGKPSGAISGVQKAENGPIDWSGDMPVSCSLSRGLQVLLTPVLANILEADQEKCWGFDQFFAETSDILHRMVIHVFSLQQMTAHKIYIHSYNTATIFHELVYKQTKIISSNQELIYEGRRLVLEPGRLAQHFPKTTEENPIFVVSREPLNTIGLIYEKISLPKVHPRYDLDGDASMAKAITGVVCYACRIASTLLLYQELMRKGIRWLIELIKDDYNETVHKKTEVVITLDFCIRNIEKTVKVYEKLMKINLEAAELGEISDIHTKLLRLSSSQGTIETSLQDIDSRLSPGGSLADAWAHQEGTHPKDRNVEKLQVLLNCMTEIYYQFKKDKAERRLAYNEEQIHKFDKQKLYYHATKAMTHFTDECVKKYEAFLNKSEEWIRKMLHLRKQLLSLTNQCFDIEEEVSKYQEYTNELQETLPQKMFTASSGIKHTMTPIYPSSNTLVEMTLGMKKLKEEMEGVVKELAENNHILERFGSLTMDGGLRNVDCL
notes: Species follows from the human cell lines; also called endogenous TBK1
B2: FLAG-tagged WT TRAF3 (other)
chain: MESSKKMDSPGALQTNPPLKLHTDRSAGTPVFVPEQGGYKEKFVKTVEDKYKCEKCHLVLCSPKQTECGHRFCESCMAALLSSSSPKCTACQESIVKDKVFKDNCCKREILALQIYCRNESRGCAEQLMLGHLLVHLKNDCHFEELPCVRPDCKEKVLRKDLRDHVEKACKYREATCSHCKSQVPMIALQKHEDTDCPCVVVSCPHKCSVQTLLRSELSAHLSECVNAPSTCSFKRYGCVFQGTNQQIKAHEASSAVQHVNLLKEWSNSLEKKVSLLQNESVEKNKSIQSLHNQICSFEIEIERQKEMLRNNESKILHLQRVIDSQAEKLKELDKEIRPFRQNWEEADSMKSSVESLQNRVTELESVDKSAGQVARNTGLLESQLSRHDQMLSVHDIRLADMDLRFQVLETASYNGVLIWKIRDYKRRKQEAVMGKTLSLYSQPFYTGYFGYKMCARVYLNGDGMGKGTHLSLFFVIMRGEYDALLPWPFKQKVTLMLMDQGSSRRHLGDAFKPDPNSSSFKKPTGEMNIASGCPVFVAQTVLENGTYIKDDTIFIKVIVDTSDLPDP
notes: Expressed in HEK293T cells; The position of the FLAG tag is unknown; not shown: FLAG tag
B3: ICOS with alanine-substituted IProx motif (170…179 to 170AAAAAAAAAA179) (receptor)
chain: EINGSANYEMFIFHNGGVQILCKYPDIVQQFKMQLLKGGQILCDLTKTKGSGNTVSIKSLKFCHSQLSNNSVSFFLYNLDHSHANYYFCNLSIFDPPPFKVTLTGGYLHIYESQLCCQLKFWLPIGCAAFVVVCILGCILICWLTKKKYAAAAAAAAAAYMFMRAVNTAKKSRLTDVTL
notes: Expressed from a plasmid in Jurkat JTAg cells; also called mIProx; IProx mutant

Assays:
[1] = target: WT ICOS (wild-type inducible T-cell costimulator, transfected into Jurkat JTAg T cells) (Homo sapiens (Human)) (UniProt Q9Y6W8); assay: SILAC mass spectrometry of anti-ICOS IPs from Jurkat cells expressing WT ICOS or mIProx, stimulated with anti-CD3 plus anti-ICOS
[2] = target: T1, WT ICOS (wild-type inducible T-cell …); assay: as above
Experimental: FACS-sorted GFP⁺ transduced cells were stimulated with α-CD3 plus α-ICOS mAbs for 2 minutes. 300 μg of the protein mixture derived from WT and mutant cell lysate were mixed at a 1:1 ratio, and immunoprecipitated with anti-ICOS mAb. Immunoprecipitants were subjected to an on-bead digestion protocol. The proteins were reduced with 100 mM Tris-HCl/8 M urea/5 mM tris(2-carboxyethyl)phosphine, and alkylated with 10 mM iodoacetamide. The solution was diluted 1:4 and digested with 1 μg of trypsin at 37° C. overnight. […] MS analysis was performed using an LTQ-Orbitrap Velos mass spectrometer (Thermo Fisher). […] The experiments were biologically repeated in four replicates, including medium isotope type swapping (heavy or light) between WT and mutant cells.

[3] = target: B1; assay: anti-FLAG IP and immunoblot, transfected HEK293T cells (FIG. 6e)
Experimental: Shown are representative of three experiments.
(§1) The human leukemic Jurkat T cell line, JTAg, was previously described (Li, J et al. J Immunol 2013, 191(1): 200-207; Rolf J et al., J Immunol 2010, 185(7): 4042-4052) and the HEK 293T cell line was obtained from ATCC. These cell lines have not been recently STR profiled but tested negative for mycoplasma contamination. JTAg cells in logarithmic growth phase were transfected with plasmid DNAs by electroporation and incubated for 24 hours.

[4] = target: T2, p85α, the regulatory subunit of PI3K, endogenous, Jurkat cells (human, UniProt P27986 2-724); assay: co-IP (anti-ICOS IP, immunoblot), transfected Jurkat cells stimulated with anti-CD3 plus anti-ICOS (FIG. 2b, 2c)
T2 construct: Species follows from the human cell line; also called p85a
T2 sequence (P27986 2-724): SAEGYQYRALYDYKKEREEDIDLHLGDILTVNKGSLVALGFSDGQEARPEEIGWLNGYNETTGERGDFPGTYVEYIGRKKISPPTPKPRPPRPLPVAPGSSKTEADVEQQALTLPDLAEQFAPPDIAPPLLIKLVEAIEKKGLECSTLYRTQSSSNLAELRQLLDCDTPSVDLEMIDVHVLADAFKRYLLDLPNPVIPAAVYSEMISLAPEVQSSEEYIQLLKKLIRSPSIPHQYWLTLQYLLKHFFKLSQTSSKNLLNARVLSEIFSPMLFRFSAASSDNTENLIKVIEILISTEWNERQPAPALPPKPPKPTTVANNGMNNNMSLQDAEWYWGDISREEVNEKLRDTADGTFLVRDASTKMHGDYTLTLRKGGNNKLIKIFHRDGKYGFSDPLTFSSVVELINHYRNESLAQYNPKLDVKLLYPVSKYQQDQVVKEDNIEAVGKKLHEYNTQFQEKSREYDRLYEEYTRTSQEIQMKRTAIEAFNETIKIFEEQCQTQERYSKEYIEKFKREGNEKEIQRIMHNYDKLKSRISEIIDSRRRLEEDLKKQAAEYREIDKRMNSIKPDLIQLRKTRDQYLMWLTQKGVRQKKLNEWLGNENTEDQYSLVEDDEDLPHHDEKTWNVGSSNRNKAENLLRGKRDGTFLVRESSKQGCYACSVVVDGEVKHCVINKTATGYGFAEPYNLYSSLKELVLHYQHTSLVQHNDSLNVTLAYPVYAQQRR
Text: IPs or whole cell lysates (WCL) were immunoblotted with the indicated Abs. 5% WCL was used as input to control for IP Western. […] Jurkat T cells transfected with WT ICOS, mIProx, YF or tailless (TL) ICOS plasmids were stimulated with anti-CD3 plus −ICOS mAbs prior to IP and immunoblotting. […] In vitro activated primary mouse CD4⁺ T cells were stimulated with anti-CD3 plus the indicated costimulatory mAbs, and IP or WCL were subjected to immunoblotting with the indicated Abs. Shown are representative of three experiments.
as §1

Molecule	Fold Change (differential binding ratio, WT ICOS IP vs mIProx ICOS IP) [1]	further results
BAG6 (chaperone), endogenous, Jurkat cells (from UniProt P46379 1-1132)	3.13 fold	
GAK (cell cycle kinase), endogenous, Jurkat cells (from UniProt O14976 2-1311) (enzyme)	2.17 fold	
SLP76 (TCR signaling), endogenous, Jurkat cells (from UniProt Q13094 1-533)	2.08 fold	
Erlin2 (ER protein), endogenous, Jurkat cells (from UniProt O94905 1-339)	1.81 fold	
NAA10 (acetyltransferase), endogenous, Jurkat cells (from UniProt P41227 1-235) (enzyme)	2.95 fold	
MYCBP2 (E3 ligase), endogenous, Jurkat cells (from UniProt O75592 1-4678) (enzyme)	5.26 fold	
B1		Fold Change (differential binding ratio, WT ICOS IP vs mIProx ICOS IP) [2]: 7.69 fold
B2		binding result [3]: binds
B3		binding result [4]: binds
